{
  "source": "paper doi:10.1101/197673",
  "target": "TM-JM peptide of EGFR labelled at the N-terminus with Cy3 or Cy5",
  "experiment": "FRET or BRET",
  "data": [
    {"substance": "TM-JM peptide of EGFR labelled at the N-terminus with Cy3 or Cy5", "values": [
      {"measurement": "percent of peptide dimers with a high FRET efficiency state in the trajectories", "value": 95, "unit": "%"}
    ]}
  ]
}
